# Test results taken from the supplement of paper PMC5998384.
# Key:
# HeLa Kyoto [1] = experiment: solubility change mitosis vs G1/S (difference of NP-40 vs SDS log2 ratios) (log2 ratio difference); higher = more soluble in mitosis
# HeLa Kyoto [2] = experiment: melting temperature (median over replicates), in situ; higher = more thermally stable
# HeLa Kyoto [3] = experiment: solubility in G1/S (NP-40 vs SDS abundance) (log2 ratio); higher = more soluble; conditions: cell cycle stage: G1/S
# HeLa Kyoto [4] = experiment: thermal stability score vs G1/S (z-score of summed log2 fold changes over temperatures); higher = more thermally stable than in G1/S
# [5] = cell cycle stage: early G1 (4.5 h after nocodazole release)
# 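Wherever melting temperature (median over replicates), in situ is given: HeLa Kyoto cells synchronized by double thymidine or nocodazole block, proteins quantified by TMT10plex mass spectrometry, three independent biological replicates.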
# 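Wherever solubility change mitosis vs G1/S (difference of NP-40 vs SDS log2 ratios) is given: synchronized HeLa Kyoto cells (double thymidine block for G1/S, nocodazole release for mitosis), protein amounts in NP-40 versus SDS lysates quantified by mass spectrometry, three biological replicates.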
# 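Wherever solubility in G1/S (NP-40 vs SDS abundance) is given: HeLa Kyoto cells arrested at G1/S by double thymidine block, proteins quantified by TMT10plex mass spectrometry in mild NP-40 versus SDS extracts, three biological replicates.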
# 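Wherever thermal stability score vs G1/S (z-score of summed log2 fold changes over temperatures) is given: synchronized HeLa Kyoto cells, proteins quantified by TMT10plex mass spectrometry, three biological replicates, mitosis taken 0.5 h after nocodazole release, G1/S directly after double thymidine block.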
Sequence,solubility change mitosis (log2) (HeLa Kyoto [1]),melting temperature (HeLa Kyoto [2]; cell cycle stage: G1/S) [°C],melting temperature (HeLa Kyoto [2]; cell cycle stage: mitosis) [°C],solubility in G1/S (log2) (HeLa Kyoto [3]),thermal stability score (HeLa Kyoto [4]; [5]),thermal stability score (HeLa Kyoto [4]; cell cycle stage: mitosis)
MSAPSEEEEYARLVMEAQPEWLRAEVKRLSHELAETTREKIQAAEYGLAVLEEKHQLKLQFEELEVDYEAIRSEMEQLKEAFGQAHTNHKKVAADGESREESLIQESASKEQYYVRKVLELQTELKQLRNVLTNTQSENERLASVAQELKEINQNVEIQRGRLRDDIKEYKFREARLLQDYSELEEENISLQKQVSVLRQNQVEFEGLKHEIKRLEEETEYLNSQLEDAIRLKEISERQLEEALETLKTEREQKNSLRKELSHYMSINDSFYTSHLHVSLDGLKFSDDAAEPNNDAEALVNGFEHGGLAKLPLDNKTSTPKKEGLAPPSPSLVSDLLSELNISEIQKLKQQLMQMEREKAGLLATLQDTQKQLEHTRGSLSEQQEKVTRLTENLSALRRLQASKERQTALDNEKDRDSHEDGDYYEVDINGPEILACKYHVAVAEAGELREQLKALRSTHEAREAQHAEEKGRYEAEGQALTEKVSLLEKASRQDRELLARLEKELKKVSDVAGETQGSLSVAQDELVTFSEELANLYHHVCMCNNETPNRVMLDYYREGQGGAGRTSPGGRTSPEARGRRSPILLPKGLLAPEAGRADGGTGDSSPSPGSSLPSPLSDPRREPMNIYNLIAIIRDQIKHLQAAVDRTTELSRQRIASQELGPAVDKDKEALMEEILKLKSLLSTKREQITTLRTVLKANKQTAEVALANLKSKYENEKAMVTETMMKLRNELKALKEDAATFSSLRAMFATRCDEYITQLDEMQRQLAAAEDEKKTLNSLLRMAIQQKLALTQRLELLELDHEQTRRGRAKAAPKTKPATPSL [BICD2],0.0849,49.7,49.1,0.628,-0.115,0.199
MAERGYSFSLTTFSPSGKLVQIEYALAAVAGGAPSVGIKAANGVVLATEKKQKSILYDERSVHKVEPITKHIGLVYSGMGPDYRVLVHRARKLAQQYYLVYQEPIPTAQLVQRVASVMQEYTQSGGVRPFGVSLLICGWNEGRPYLFQSDPSGAYFAWKATAMGKNYVNGKTFLEKRYNEDLELEDAIHTAILTLKESFEGQMTEDNIEVGICNEAGFRRLTPTEVKDYLAAIA [PSMA2],-0.045,58.3,60.8,0.391,-1.52,-1.53
MLSRVVLSAAATAAPSLKNAAFLGPGVLQATRTFHTGQPHLVPVPPLPEYGGKVRYGLIPEEFFQFLYPKTGVTGPYVLGTGLILYALSKEIYVISAETFTALSVLGVMVYGIKKYGPFVADFADKLNEQKLAQLEEAKQASIQHIQNAIDTEKSQQALVQKRHYLFDVQRNNIAMALEVTYRERLYRVYKEVKNRLDYHISVQNMMRRKEQEHMINWVEKHVVQSISTQQEKETIAKCIADLKLLAKKAQAQPVM [ATP5F1],0.116,52.8,53.8,0.102,-0.0719,-1.2
MFEEKASSPSGKMGGEEKPIGAGEEKQKEGGKKKNKEGSGDGGRAELNPWPEYIYTRLEMYNILKAEHDSILAEKAEKDSKPIKVTLPDGKQVDAESWKTTPYQIACGISQGLADNTVIAKVNNVVWDLDRPLEEDCTLELLKFEDEEAQAVYWHSSAHIMGEAMERVYGGCLCYGPPIENGFYYDMYLEEGGVSSNDFSSLEALCKKIIKEKQAFERLEVKKETLLAMFKYNKFKCRILNEKVNTPTTTVYRCGPLIDLCRGPHVRHTGKIKALKIHKNSSTYWEGKADMETLQRIYGISFPDPKMLKEWEKFQEEAKNRDHRKIGRDQELYFFHELSPGSCFFLPKGAYIYNALIEFIRSEYRKRGFQEVVTPNIFNSRLWMTSGHWQHYSENMFSFEVEKELFALKPMNCPGHCLMFDHRPRSWRELPLRLADFGVLHRNELSGALTGLTRVRRFQQDDAHIFCAMEQIEDEIKGCLDFLRTVYSVFGFSFKLNLSTRPEKFLGDIEVWDQAEKQLENSLNEFGEKWELNSGDGAFYGPKIDIQIKDAIGRYHQCATIQLDFQLPIRFNLTYVSHDGDDKKRPVIVHRAILGSVERMIAILTENYGGKWPFWLSPRQVMVVPVGPTCDEYAQKVRQQFHDAKFMADIDLDPGCTLNKKIRNAQLAQYNFILVVGEKEKISGTVNIRTRDNKVHGERTISETIERLQQLKEFRSKQAEEEF [TARS],-0.144,51.9,51.6,-0.0551,0.00611,-0.985
MAGPAWISKVSRLLGAFHNPKQVTRGFTGGVQTVTLIPGDGIGPEISAAVMKIFDAAKAPIQWEERNVTAIQGPGGKWMIPSEAKESMDKNKMGLKGPLKTPIAAGHPSMNLLLRKTFDLYANVRPCVSIEGYKTPYTDVNIVTIRENTEGEYSGIEHVIVDGVVQSIKLITEGASKRIAEFAFEYARNNHRSNVTAVHKANIMRMSDGLFLQKCREVAESCKDIKFNEMYLDTVCLNMVQDPSQFDVLVMPNLYGDILSDLCAGLIGGLGVTPSGNIGANGVAIFESVHGTAPDIAGKDMANPTALLLSAVMMLRHMGLFDHAARIEAACFATIKDGKSLTKDLGGNAKCSDFTEEICRRVKDLD [IDH3A],-0.00106,54.5,54.6,0.45,-0.172,-1.18
MAVVAAAAGWLLRLRAAGAEGHWRRLPGAGLARGFLHPAATVEDAAQRRQVAHFTFQPDPEPREYGQTQKMNLFQSVTSALDNSLAKDPTAVIFGEDVAFGGVFRCTVGLRDKYGKDRVFNTPLCEQGIVGFGIGIAVTGATAIAEIQFADYIFPAFDQIVNEAAKYRYRSGDLFNCGSLTIRSPWGCVGHGALYHSQSPEAFFAHCPGIKVVIPRSPFQAKGLLLSCIEDKNPCIFFEPKILYRAAAEEVPIEPYNIPLSQAEVIQEGSDVTLVAWGTQVHVIREVASMAKEKLGVSCEVIDLRTIIPWDVDTICKSVIKTGRLLISHEAPLTGGFASEISSTVQEECFLNLEAPISRVCGYDTPFPHIFEPFYIPDKWKCYDALRKMINY [BCKDHB],-0.179,52.6,52,-0.09,-0.96,-1.83
MADKVLKEKRKLFIRSMGEGTINGLLDELLQTRVLNKEEMEKVKRENATVMDKTRALIDSVIPKGAQACQICITYICEEDSYLAGTLGLSADQTSGNYLNMQDSQGVLSSFPAPQAVQDNPAMPTSSGSEGNVKLCSLEEAQRIWKQKSAEIYPIMDKSSRTRLALIICNEEFDSIPRRTGAEVDITGMTMLLQNLGYSVDVKKNLTASDMTTELEAFAHRPEHKTSDSTFLVFMSHGIREGICGKKHSEQVPDILQLNAIFNMLNTKNCPSLKDKPKVIIIQACRGDSPGVVWFKDSVGVSGNLSLPTTEEFEDDAIKKAHIEKDFIAFCSSTPDNVSWRHPTMGSVFIGRLIEHMQEYACSCDVEEIFRKVRFSFEQPDGRAQMPTTERVTLTRCFYLFPGH [CASP1],-0.0916,51.5,49.6,0.0768,0.996,1.73
MRSRVAVRACHKVCRCLLSGFGGRVDAGQPELLTERSSPKGGHVKSHAELEGNGEHPEAPGSGEGSEALLEICQRRHFLSGSKQQLSRDSLLSGCHPGFGPLGVELRKNLAAEWWTSVVVFREQVFPVDALHHKPGPLLPGDSAFRLVSAETLREILQDKELSKEQLVAFLENVLKTSGKLRENLLHGALEHYVNCLDLVNKRLPYGLAQIGVCFHPVFDTKQIRNGVKSIGEKTEASLVWFTPPRTSNQWLDFWLRHRLQWWRKFAMSPSNFSSSDCQDEEGRKGNKLYYNFPWGKELIETLWNLGDHELLHMYPGNVSKLHGRDGRKNVVPCVLSVNGDLDRGMLAYLYDSFQLTENSFTRKKNLHRKVLKLHPCLAPIKVALDVGRGPTLELRQVCQGLFNELLENGISVWPGYLETMQSSLEQLYSKYDEMSILFTVLVTETTLENGLIHLRSRDTTMKEMMHISKLKDFLIKYISSAKNV [POLG2],0.206,,54.6,-0.0655,0.753,1.26
MEAARTAVLRVKRKRSAEPAEALVLACKRLRSDAVESAAQKTSEGLERAAENNVFHLVATVCSQEEPVQPLLREVLRPSRDSQQRVRRNLRASAREVRQEGRYRVLSSRRSLGTTSSGQESEYTPGNPEAAGNSGFQLLDLVHEEGEPEAASAGSCKTSDPDVILCNSVELIRERLTVSEDGPGVRRQEEQKHDDYVYDIYYLETATPGWIENILSVQPYSQEWELVNDDQEPEDIYDDEDDENSENNWRNEYPEEESSDGDEDSRGSADYNSLSEEERGSSRQRMWSKYPLDVQKEFGYDSPHDLDSD [SLC7A6OS],-0.117,52.4,54,0.343,-0.0342,0.677
MNPESSIFIEDYLKYFQDQVSRENLLQLLTDDEAWNGFVAAAELPRDEADELRKALNKLASHMVMKDKNRHDKDQQHRQWFLKEFPRLKRELEDHIRKLRALAEEVEQVHRGTTIANVVSNSVGTTSGILTLLGLGLAPFTEGISFVLLDTGMGLGAAAAVAGITCSVVELVNKLRARAQARNLDQSGTNVAKVMKEFVGGNTPNVLTLVDNWYQVTQGIGRNIRAIRRARANPQLGAYAPPPHVIGRISAEGGEQVERVVEGPAQAMSRGTMIVGAATGGILLLLDVVSLAYESKHLLEGAKSESAEELKKRAQELEGKLNFLTKIHEMLQPGQDQ [APOL2],0.0238,50,50.8,0.309,4.12,3.26
